Tested on: peptide library, one residue held at a place counted from the S/T acceptor
Assay: relative phosphorylation of the sub-library (ratio to the mean residue at this position); higher = residue favoured
How it was run: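 Human or orthologue kinase constructs, purified and recombinant, were incubated under kinase-specific conditions in 384-well plates with biotinylated degenerate peptide sub-libraries. Each sub-library fixed one residue at one position around a central Ser/Thr. Incubations lasted 90 min with peptides at 50 μM and 50 μM ATP spiked with γ-32P-ATP, after which spots on streptavidin membranes were phosphorimaged and quantified by densitometry. Relative sub-library phosphorylation is a ratio to the mean residue at that position.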

Chain of PRKG2, construct: Full length, human (Q13237 whole entry, looked up): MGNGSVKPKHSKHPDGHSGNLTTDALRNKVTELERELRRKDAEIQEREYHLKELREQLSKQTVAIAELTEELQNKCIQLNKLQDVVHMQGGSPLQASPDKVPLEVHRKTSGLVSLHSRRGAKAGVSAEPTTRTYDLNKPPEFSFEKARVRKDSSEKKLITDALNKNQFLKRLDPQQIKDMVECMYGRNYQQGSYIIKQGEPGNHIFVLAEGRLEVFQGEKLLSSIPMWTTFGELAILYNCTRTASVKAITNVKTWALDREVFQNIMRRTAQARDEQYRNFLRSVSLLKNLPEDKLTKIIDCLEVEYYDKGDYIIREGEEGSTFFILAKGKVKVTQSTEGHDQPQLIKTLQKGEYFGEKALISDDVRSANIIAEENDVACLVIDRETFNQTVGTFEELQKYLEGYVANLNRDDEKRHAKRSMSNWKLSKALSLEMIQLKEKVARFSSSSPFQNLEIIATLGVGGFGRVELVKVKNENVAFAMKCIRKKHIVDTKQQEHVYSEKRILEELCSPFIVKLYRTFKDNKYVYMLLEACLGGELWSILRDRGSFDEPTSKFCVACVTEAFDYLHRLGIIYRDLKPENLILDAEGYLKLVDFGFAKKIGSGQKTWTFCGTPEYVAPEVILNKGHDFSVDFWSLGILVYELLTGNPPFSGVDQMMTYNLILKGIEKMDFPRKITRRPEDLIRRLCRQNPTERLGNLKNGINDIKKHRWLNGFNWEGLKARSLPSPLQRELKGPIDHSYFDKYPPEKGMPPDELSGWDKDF
Chain of CDK12, construct: aa714-1063, human (Q9NYV4 714-1063, looked up): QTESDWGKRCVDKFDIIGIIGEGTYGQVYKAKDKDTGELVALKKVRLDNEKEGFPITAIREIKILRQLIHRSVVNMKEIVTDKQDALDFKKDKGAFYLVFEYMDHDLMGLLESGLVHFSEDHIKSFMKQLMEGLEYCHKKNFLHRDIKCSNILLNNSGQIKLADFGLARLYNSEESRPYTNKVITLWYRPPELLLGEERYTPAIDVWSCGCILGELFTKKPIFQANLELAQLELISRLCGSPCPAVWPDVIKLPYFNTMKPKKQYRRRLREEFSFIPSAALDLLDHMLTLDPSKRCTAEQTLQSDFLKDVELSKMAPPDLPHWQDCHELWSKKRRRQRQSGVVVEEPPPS

CDK12, construct: aa714-1063, human (from UniProt Q9NYV4)
relative phosphorylation
Conditions	at +1	at +2	at +3	at +4	at -1	at -2	at -3	at -4	at -5
A fixed	0.323	0.895	0.799	0.848	1.09	1.19	1.04	1.11	1.13
D fixed	0.154	0.546	0.392	0.912	0.38	0.47	0.629	0.861	0.879
E fixed	0.155	0.5	0.446	0.923	0.438	0.456	0.707	0.9	0.735
F fixed	0.341	0.984	0.553	0.891	0.844	0.667	0.778	1.07	1.21
G fixed	0.715	1.28	0.854	1.43	1.58	1.7	2.58	1.27	1.09
H fixed	0.261	1.21	1.79	1.44	0.876	0.811	0.897	1.04	1.01
I fixed	0.309	0.911	0.929	0.828	0.364	0.973	0.971	0.891	0.868
K fixed	0.27	1.34	0.977	0.804	1.01	0.659	0.63	0.832	0.847
L fixed	0.36	0.853	0.545	0.765	0.834	0.863	0.754	0.946	0.939
M fixed	0.357	1.16	0.523	0.832	1.65	1.28	0.819	1.04	0.924
N fixed	0.227	0.992	0.721	0.973	0.801	0.713	0.686	0.893	0.82
P fixed	12.1	0.747	1.26	0.992	1.08	1.84	1.33	1.06	1.28
Q fixed	0.243	0.828	0.709	0.889	0.982	0.738	0.637	0.763	0.883
R fixed	0.281	1.77	3.97	0.962	2.34	1.58	1.75	1.02	1.03
V fixed	0.319	0.846	0.71	0.73	0.467	0.906	0.762	0.784	0.899
W fixed	0.283	0.933	0.881	1.58	1.1	1.2	0.927	1.35	1.19
Y fixed	0.274	1.2	0.934	1.21	1.17	0.956	1.1	1.19	1.27
pThr fixed	0.363	0.528	0.566	0.999	0.336	0.48	0.83	0.846	0.975
pTyr fixed	0.378	0.504	0.859	1.29	1.16	0.719	0.908	0.998	0.975

PRKG2, construct: Full length, human (from UniProt Q13237)
relative phosphorylation
Conditions	at +1	at +2	at +3	at +4	at -1	at -2	at -3	at -4	at -5
A fixed	0.876	1.35	1.04	0.834	0.761	0.368	0.816	1.28	1.24
D fixed	0.313	0.408	0.703	0.573	0.421	0.132	0.147	0.472	0.416
E fixed	0.45	0.386	0.697	0.601	0.361	0.113	0.206	0.584	0.415
F fixed	1.34	1.09	0.948	0.919	0.928	0.285	0.477	0.753	0.859
G fixed	0.563	0.911	1.2	1.07	0.529	0.387	0.983	1.23	1.21
H fixed	1.02	1.39	1.42	1.21	1.18	0.662	1.09	0.997	1.05
I fixed	1.56	1.16	0.83	1.01	0.993	0.24	0.337	0.731	0.883
K fixed	1.06	1.21	1.29	1.05	1.78	4.63	2.46	1.74	2.05
L fixed	1.29	0.936	0.943	0.883	1.16	0.321	0.376	0.789	0.745
M fixed	1.36	0.935	0.893	1.1	1.12	0.261	0.412	0.896	0.722
N fixed	0.801	0.765	0.893	1.04	0.921	0.436	0.577	0.766	0.803
P fixed	0.28	0.748	0.932	1.55	1.26	0.349	1.32	1.14	1.07
Q fixed	1.11	0.962	0.924	1.04	0.897	0.465	0.832	0.968	0.836
R fixed	1.41	1.21	1.49	1	1.76	7.58	5.47	2.24	2.01
V fixed	1.9	1.44	0.927	0.937	1.07	0.234	0.399	0.928	0.905
W fixed	0.766	1.01	0.832	1.29	0.66	0.283	0.514	0.762	0.884
Y fixed	0.901	1.09	1.04	0.892	1.2	0.265	0.575	0.716	0.902
pThr fixed	0.816	0.427	0.557	0.911	0.426	0.306	0.471	0.756	0.666
pTyr fixed	0.634	0.543	0.976	0.751	0.502	0.277	0.437	0.502	0.698

Reference: the supplement of paper PMC9876800
